From paper PMC6899042, “Perturbation of the titin/MURF1 signaling complex is associated with hypertrophic cardiomyopathy in a fish model and in human patients” (Disease Models & Mechanisms, 2019)

Target: T1, myc-tagged MURF1 (muscle-specific ring finger protein 1), full length (human, UniProt Q969Q1-1 1-353)
T1 construct: MURF1 (muscle-specific ring finger protein 1), human, full-length cDNA from bp137 to bp1198 of GenBank NM_032588, printed as aa1-aa354; Cloned into myc-tagged pCMV-Tag3. bp137-bp1198 is 354 codons, which may count the stop codon; source: COS-7 cells, transfected, in lysate (cell line named only for the A168-170 experiment)
Test: co-IP; GFP-tagged TTN fragment co-transfected with myc-tagged MURF1 (COS-7 cells named for A168-170); IP with anti-myc antibody (Catch and Release v2.0 Reversible Immunoprecipitation System), Western blot with anti-GFP; densitometry normalised to the input amount of GFP-TTN, WT set to 1.00 AU
Conditions: partners not purified

T1 sequence (Q969Q1 whole entry, the tested form may be a part): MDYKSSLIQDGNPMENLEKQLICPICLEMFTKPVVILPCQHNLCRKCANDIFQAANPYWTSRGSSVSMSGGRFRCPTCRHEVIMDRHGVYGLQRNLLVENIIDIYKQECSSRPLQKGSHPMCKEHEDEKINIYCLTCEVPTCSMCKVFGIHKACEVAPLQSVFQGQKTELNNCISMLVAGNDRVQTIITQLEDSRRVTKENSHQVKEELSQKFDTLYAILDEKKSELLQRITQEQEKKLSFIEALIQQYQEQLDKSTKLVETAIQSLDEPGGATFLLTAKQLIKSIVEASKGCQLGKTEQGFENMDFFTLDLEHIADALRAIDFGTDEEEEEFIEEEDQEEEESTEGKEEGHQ

B1: GFP-tagged D30994N-TTN-A168 (titin Ig domain A168 with the HCM-associated mutation D30994N) (domain or fragment, human, UniProt Q8WZ42-11 30928-31021, looked up)
chain: PHFKEELRNLNVRYQSNATLVCKVTGHPKPIVKWYRQGKEIIADGLKYRIQEFKGGYHQLIIASVTNDDATVYQVRATNQGGSVSGTASLEVEV
notes: numbers count on: the protein encoded by GenBank NM_133378; Cloned into pEGFP-C1; the mutation was found in a family with HCM; also called D30994N mutant TTN-A168
  co-precipitated amount relative to WT TTN-A168 (1.00 AU): 3.06 AU

B2: GFP-tagged WT-TTN-A169 (titin Ig domain A169) (domain or fragment, human, UniProt Q8WZ42-11 31022-31119, looked up)
chain: PAKIHLPKTLEGMGAVHALRGEVVSIKIPFSGKPDPVITWQKGQDLIDNNGHYQVIVTRSFTSLVFPNGVERKDAGFYVVCAKNRFGIDQKTVELDVA
notes: numbers count on: the protein encoded by GenBank NM_133378; Cloned into pEGFP-C1; also called A169 domain
  co-precipitated amount relative to WT TTN-A168 (1.00 AU): 6.69 AU

B3: GFP-tagged D30994N-TTN-A168-170 (titin domains A168-A170 with the HCM-associated mutation D30994N) (domain or fragment, human, UniProt Q8WZ42-11 30928-31228, looked up)
chain: PHFKEELRNLNVRYQSNATLVCKVTGHPKPIVKWYRQGKEIIADGLKYRIQEFKGGYHQLIIASVTNDDATVYQVRATNQGGSVSGTASLEVEVPAKIHLPKTLEGMGAVHALRGEVVSIKIPFSGKPDPVITWQKGQDLIDNNGHYQVIVTRSFTSLVFPNGVERKDAGFYVVCAKNRFGIDQKTVELDVADVPDPPRGVKVSDVSRDSVNLTWTEPASDGGSKITNYIVEKCATTAERWLRVGQARETRYTVINLFGKTSYQFRVIAENKFGLSKPSEPSEPTITKEDKTRAMNYDEEV
notes: numbers count on: the protein encoded by GenBank NM_133378; Cloned into pEGFP-C1; the mutation was found in a family with HCM; also called D30994N mutant TTN-A168-170; source: COS-7 cells, transfected, in lysate
  co-precipitated amount relative to WT TTN-A168-170 (1.00 AU): 1.58 AU

B4: GFP-tagged E29783V-TTN-A156 (titin Ig domain A156 with the equivalent of the medaka nsh mutation D23186V) (domain or fragment, human, UniProt Q8WZ42-11 29735-29829, looked up)
chain: LPTIDLSTMPQKTIHVPAGRPVELVIPIAGRPPPAASWFFAGSKLRESVRVTVETHTKVAKLTIRETTIRDTGEYTLELKNVTGTTSETIKVIIL
notes: numbers count on: the protein encoded by GenBank NM_133378; Cloned into pEGFP-C1; mutation made by primer-mediated mutagenesis; also called mutant-TTN-A156; nsh Ig domain
  co-precipitated amount relative to WT TTN-A156 (1.00 AU): 9.23 AU

B5: GFP-tagged S30186A-TTN-A160-161 (titin domains A160-161 with the HCM-associated mutation S30186A) (domain or fragment, human, UniProt Q8WZ42-11 30134-30326, looked up)
chain: PDYELDERYQEGIFVRQGGVIRLTIPIKGKPFPICKWTKEGQDISKRAMIATAETHTELVIKEADRGDSGTYDLVLENKCGKKAVYIKVRVIGSPNSPEGPLEYDDIQVRSVRVSWRPPADDGGADILGYILERREVPKAAWYTIDSRVRGTSLVVKGLKENVEYHFRVSAENQFGISKPLKSEEPVTPKTPL
notes: numbers count on: the protein encoded by GenBank NM_133378; Cloned into pEGFP-C1; the mutation was found in a family with HCM
  co-precipitated amount relative to WT TTN-A160-161 (1.00 AU): 3.11 AU
